Residue numbers refer to the chain shown, from its start.
T1: AP2-HC D1 (Plasmodium falciparum, UniProt Q8IKR9 1316-1374)
T1 sequence: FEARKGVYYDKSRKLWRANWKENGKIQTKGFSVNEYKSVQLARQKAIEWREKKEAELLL

B1: CACACA_negctrl_site718 (dsDNA)
DNA 1: TATAACATTTTTTTCAAAATAGCTTTAGAAATAAAG
DNA 2: CTTTATTTCTAAAGCTATTTTGAAAAAAATGTTATA
B2: CACACA_negctrl_site1657 (dsDNA)
DNA 1: TATTACATTATTCAAAAAAATTTATATGGTTATAGG
DNA 2: CCTATAACCATATAAATTTTTTTGAATAATGTAATA
B3: CACACA_negctrl_site1113 (dsDNA)
DNA 1: TTTTTTTTTAAAGAAAATAAAAATATGTACTTGACA
DNA 2: TGTCAAGTACATATTTTTATTTTCTTTAAAAAAAAA
B4: CACACA_negctrl_site18 (dsDNA)
DNA 1: TTTTTTTTTCTTCTTTTCAAATTTAAGAAATTATAA
DNA 2: TTATAATTTCTTAAATTTGAAAAGAAGAAAAAAAAA
B5: CACACA_negctrl_site1293 (dsDNA)
DNA 1: TCATATTCCAAAAAAAAAAAAAAAAAAAAAAAAATA
DNA 2: TATTTTTTTTTTTTTTTTTTTTTTTTTGGAATATGA
B6: CACACA_negctrl_site191 (dsDNA)
DNA 1: TTGTTCATCTTTTTTTTTTTTTTTTTTTTTTAAATC
DNA 2: GATTTAAAAAAAAAAAAAAAAAAAAAAGATGAACAA
B7: CACACA_negctrl_site1727 (dsDNA)
DNA 1: TAACCACAAAAATAAAATCAAAAAAAAAAAAAAAAA
DNA 2: TTTTTTTTTTTTTTTTTGATTTTATTTTTGTGGTTA
B8: CACACA_negctrl_site452 (dsDNA)
DNA 1: AATATATGATAATTTTTTTTTTTTTTTTTTAAATAT
DNA 2: ATATTTAAAAAAAAAAAAAAAAAATTATCATATATT
B9: CACACA_site9316 (dsDNA)
DNA 1: CTTTTTAATAAATATACACACACAAAAAAAAAAAAA
DNA 2: TTTTTTTTTTTTTGTGTGTGTATATTTATTAAAAAG
B10: CACACA_negctrl_site819 (dsDNA)
DNA 1: TGATTATATAAAAAAAAGAAAAAAAAAAAAAAAAAA
DNA 2: TTTTTTTTTTTTTTTTTTCTTTTTTTTATATAATCA
B11: CACACA_negctrl_site1718 (dsDNA)
DNA 1: TTTTTGCAAAAAGAAATAATTTTATTTTAGTTCGGA
DNA 2: TCCGAACTAAAATAAAATTATTTCTTTTTGCAAAAA
B12: CACACA_negctrl_site1514 (dsDNA)
DNA 1: GAATAAAAAAAAAAAAAAATTTATTTTATAATAAAA
DNA 2: TTTTATTATAAAATAAATTTTTTTTTTTTTTTATTC
B13: CACACA_negctrl_site273 (dsDNA)
DNA 1: TTTTTTTTTTTTTTTTTTTTTTGTGAAACTAAGTAA
DNA 2: TTACTTAGTTTCACAAAAAAAAAAAAAAAAAAAAAA
B14: CACACA_negctrl_site792 (dsDNA)
DNA 1: AAAGAAAAAGAAAAAGAAAAATTAGAATATAAAATA
DNA 2: TATTTTATATTCTAATTTTTCTTTTTCTTTTTCTTT
B15: CACACA_negctrl_site1057 (dsDNA)
DNA 1: TGATTTTTTTTTTTTTTTTTTTTTTTTTTAGTTTGC
DNA 2: GCAAACTAAAAAAAAAAAAAAAAAAAAAAAAAATCA
B16: CACACA_negctrl_site1196 (dsDNA)
DNA 1: AAAAATTGAATTTTTTTTTTTTTTTTGAGAAGGAAA
DNA 2: TTTCCTTCTCAAAAAAAAAAAAAAAATTCAATTTTT
B17: CACACA_negctrl_site1253 (dsDNA)
DNA 1: TAATATTTCGTTAAGTTTTAAAGAAAAAAAAAAAAA
DNA 2: TTTTTTTTTTTTTCTTTAAAACTTAACGAAATATTA
B18: CACACA_negctrl_site1343 (dsDNA)
DNA 1: TTTTAAAAAAAAAAAAAAAAAAAAAAAAAAAAAAAA
DNA 2: TTTTTTTTTTTTTTTTTTTTTTTTTTTTTTTTAAAA
B19: CACACA_negctrl_site1721 (dsDNA)
DNA 1: TTATATTTATATGTAATACAAAATAACAAAAAATTT
DNA 2: AAATTTTTTGTTATTTTGTATTACATATAAATATAA
B20: CACACA_negctrl_site1226 (dsDNA)
DNA 1: TGTTATTTAAATAATTCTTTTTAAAAGATGAATTAT
DNA 2: ATAATTCATCTTTTAAAAAGAATTATTTAAATAACA
B21: CACACA_negctrl_site822 (dsDNA)
DNA 1: TTTTTTCAATAAATAATCGTATATTGAATAATAATA
DNA 2: TATTATTATTCAATATACGATTATTTATTGAAAAAA
B22: CACACA_negctrl_site959 (dsDNA)
DNA 1: ATTTTTTTTTAATGCAAAAGGTGATGATCGGTCATA
DNA 2: TATGACCGATCATCACCTTTTGCATTAAAAAAAAAT
B23: CACACA_negctrl_site1354 (dsDNA)
DNA 1: TCTTTTTTTTCTTTTTTTTTATTTAAATATCAAGTA
DNA 2: TACTTGATATTTAAATAAAAAAAAAGAAAAAAAAGA
B24: CACACA_negctrl_site488 (dsDNA)
DNA 1: TTTTTAATAAAATGATTGATAATTATTAAATTAAAA
DNA 2: TTTTAATTTAATAATTATCAATCATTTTATTAAAAA
B25: CACACA_site382 (dsDNA)
DNA 1: GATATATATATTCACACACACATGGAAATATATATA
DNA 2: TATATATATTTCCATGTGTGTGTGAATATATATATC
B26: CACACA_negctrl_site1410 (dsDNA)
DNA 1: TAAAGTACAGGAGTAAATTGAAAAAAAAAAAAAAAA
DNA 2: TTTTTTTTTTTTTTTTCAATTTACTCCTGTACTTTA
B27: CACACA_negctrl_site585 (dsDNA)
DNA 1: TTTTTTTCTTGTTTTAAATAATATACTGGAAAAAAA
DNA 2: TTTTTTTCCAGTATATTATTTAAAACAAGAAAAAAA
B28: CACACA_negctrl_site383 (dsDNA)
DNA 1: GGAACCATCCAAAAAAAAAAAAAAAATAATAATAAT
DNA 2: ATTATTATTATTTTTTTTTTTTTTTTGGATGGTTCC
B29: CACACA_negctrl_site1670 (dsDNA)
DNA 1: TTTATTTAAAAAATAAAAAAAAAAAAAAAAAAAAAA
DNA 2: TTTTTTTTTTTTTTTTTTTTTTATTTTTTAAATAAA
B30: CACACA_site8055 (dsDNA)
DNA 1: ATCTAAATAAAGTTAACACACACATAATATATATAT
DNA 2: ATATATATATTATGTGTGTGTTAACTTTATTTAGAT
B31: CACACA_negctrl_site1530 (dsDNA)
DNA 1: TATTTTGAAATGGAAAGGATATAGAACTTAAACAAA
DNA 2: TTTGTTTAAGTTCTATATCCTTTCCATTTCAAAATA
B32: CACACA_negctrl_site807 (dsDNA)
DNA 1: TTTTTTTTTTTTTTTTTTAAACACCTCAAAAAAAAA
DNA 2: TTTTTTTTTGAGGTGTTTAAAAAAAAAAAAAAAAAA
B33: CACACA_negctrl_site1615 (dsDNA)
DNA 1: TTTTTTTGCATGAGCAATAAAAAAGGCTTGTTCAAA
DNA 2: TTTGAACAAGCCTTTTTTATTGCTCATGCAAAAAAA
B34: CACACA_negctrl_site1298 (dsDNA)
DNA 1: ATATTATCATTTTTTTTAATGGAAAAAAAAAAAAAA
DNA 2: TTTTTTTTTTTTTTCCATTAAAAAAAATGATAATAT
B35: CACACA_negctrl_site1524 (dsDNA)
DNA 1: TTTTTTTTTTTTTTTTTTTTACCCCTTTTTCAAAAA
DNA 2: TTTTTGAAAAAGGGGTAAAAAAAAAAAAAAAAAAAA
B36: CACACA_site3408 (dsDNA)
DNA 1: GATCTATACATGGGGACACACATCACTCTATATTTT
DNA 2: AAAATATAGAGTGATGTGTGTCCCCATGTATAGATC
B37: CACACA_negctrl_site662 (dsDNA)
DNA 1: TTGTATTATATTGTATTATGTTTAAATGAAAAAAAA
DNA 2: TTTTTTTTCATTTAAACATAATACAATATAATACAA
B38: CACACA_negctrl_site34 (dsDNA)
DNA 1: TTATGTATATTATAAATTAATACATTTAAATTAATA
DNA 2: TATTAATTTAAATGTATTAATTTATAATATACATAA
B39: CACACA_negctrl_site388 (dsDNA)
DNA 1: TTATTTAAAATTTTTATGCGTATATATATAGGAACA
DNA 2: TGTTCCTATATATATACGCATAAAAATTTTAAATAA
B40: CACACA_negctrl_site143 (dsDNA)
DNA 1: ATAAACAGAAAAAAAAAAAAAAAAAAAAAAAAAAAA
DNA 2: TTTTTTTTTTTTTTTTTTTTTTTTTTTTCTGTTTAT
B41: CACACA_negctrl_site292 (dsDNA)
DNA 1: B40 DNA 1 with T2A, C6A, G8A, A36G
DNA 2: B40 DNA 2 with T1C, C29T, G31T, A35T
B42: CACACA_negctrl_site59 (dsDNA)
DNA 1: B40 DNA 1 with T2A, C6A, G8A, A30T
DNA 2: B40 DNA 2 with T7A, C29T, G31T, A35T
B43: CACACA_negctrl_site1097 (dsDNA)
DNA 1: ATATTTTTAGGTGATTATTATTCGGAGAAGCGAATT
DNA 2: AATTCGCTTCTCCGAATAATAATCACCTAAAAATAT
B44: CACACA_site8492 (dsDNA)
DNA 1: AAAAAAAAAAAAAAAACACACACAAATTTAATATAT
DNA 2: ATATATTAAATTTGTGTGTGTTTTTTTTTTTTTTTT

target: T1, AP2-HC D1; test: gcPBM; about 25 ug protein; PBS, 1% milk, 0.2 mg/ml BSA, salmon testes DNA, 0.03% Triton X-100; settings: tags: N-terminal GST (pGEX-4T-1), kept; label: surface-attached array probe

Binder	binding signal
B1	9.31 ln median PBM intensity, better of two orientations
B2	9.24 ln median PBM intensity, better of two orientations
B3	9.17 ln median PBM intensity, better of two orientations
B4	9.28 ln median PBM intensity, better of two orientations
B5	9.15 ln median PBM intensity, better of two orientations
B6	9.2 ln median PBM intensity, better of two orientations
B7	8.75 ln median PBM intensity, better of two orientations
B8	9.23 ln median PBM intensity, better of two orientations
B9	10.1 ln median PBM intensity, better of two orientations
B10	9.07 ln median PBM intensity, better of two orientations
B11	9.16 ln median PBM intensity, better of two orientations
B12	9.25 ln median PBM intensity, better of two orientations
B13	8.92 ln median PBM intensity, better of two orientations
B14	9.29 ln median PBM intensity, better of two orientations
B15	9.25 ln median PBM intensity, better of two orientations
B16	9.23 ln median PBM intensity, better of two orientations
B17	9.21 ln median PBM intensity, better of two orientations
B18	8.78 ln median PBM intensity, better of two orientations
B19	9.33 ln median PBM intensity, better of two orientations
B20	9.21 ln median PBM intensity, better of two orientations
B21	9.23 ln median PBM intensity, better of two orientations
B22	9.27 ln median PBM intensity, better of two orientations

Binder	binding signal
B23	9.2 ln median PBM intensity, better of two orientations
B24	9.22 ln median PBM intensity, better of two orientations
B25	10.1 ln median PBM intensity, better of two orientations
B26	9.3 ln median PBM intensity, better of two orientations
B27	8.87 ln median PBM intensity, better of two orientations
B28	9.18 ln median PBM intensity, better of two orientations
B29	8.32 ln median PBM intensity, better of two orientations
B30	10.1 ln median PBM intensity, better of two orientations
B31	9.32 ln median PBM intensity, better of two orientations
B32	8.83 ln median PBM intensity, better of two orientations
B33	9.03 ln median PBM intensity, better of two orientations
B34	9.12 ln median PBM intensity, better of two orientations
B35	8.65 ln median PBM intensity, better of two orientations
B36	10.1 ln median PBM intensity, better of two orientations
B37	9.32 ln median PBM intensity, better of two orientations
B38	9.28 ln median PBM intensity, better of two orientations
B39	9.3 ln median PBM intensity, better of two orientations
B40	8.89 ln median PBM intensity, better of two orientations
B41	9.04 ln median PBM intensity, better of two orientations
B42	9.2 ln median PBM intensity, better of two orientations
B43	9.32 ln median PBM intensity, better of two orientations
B44	10.1 ln median PBM intensity, better of two orientations
